# Assay results taken from paper PMC13601591 (Nature Communications, 2026).
# Target: the molecule itself
# Experiment: SDS-resistant oligomer on SDS-PAGE and immunoblot
protein,measurement,value
"fh1-HAP2-HA (HAP2 with W173A and F177A mutations in the fusion loop) (natural protein, Chlamydomonas reinhardtii, UniProt A4GRC6 23-1139, looked up) EVIASGRLEKCVVDGVTEELDCQEKVVVTLTVGNGQSLQTEALEFSLSCLNSPDGRCPCSCSAADPTCACRDLAAPLRVSLTKSPLWASYPLQYLSSFNWKPLEVILRPSNKVCKDGDWEDSPTCGWFSQGGVRVADSQGFCCECSSSQVADDTAGSSKERTRANLDCDFWSDPLDILIGRKPVSAHCLTFDPQWYSGYELGAASLQFEIAITVEVPTAPSPTTATTSATPRTNNSSSANSTNSTNSPAPQFLSPPAPSTREVLHLGPSVPLASSASRLLSAKLLGDLAMYTQLPAISNQVLMVPQPPAAAAATGSPLDATLATNRSAWMLLDKTMLSMDGLACDKVGTGFSAFRYQPSGCGRAPQACLSGQLKDLWEADLARIADGRVPLYMITRFTGGSDTTLQSFSGGPLSFALPVTSHSQSLVTLSVAADGVRLVTNRSPGKITGAAVCRFAGTSCGGFEAVAARGYIYVNITNTGRLDSDYTLTVSNCSSNVRPIEARTLAVRAGSAASLDPPMELYVEDQAAAAARTCTVSLYDSVGAVTDSLTLSFYTNATQLVVKPSGGYNGTGDGAGVKRNGTDCSTACTNPIDVLCFVTKKCWSKFGRLLGIIGGALVGLGLLAVALKFGWLASLAASCCGGGGGAAAGGAGGGMGLGTGGGGGCFGGGQQQQQLPPAASHAMSPPQQQQRSHAEVAAGAAVAGAGAAGAAAAVLGAKHGGGGGGARGKQQHADTRHLQDRDSRAIDGGASIGSSSAGGSSSLSSYSQPREAGGRLLQPPAAAVFVPEGGGGGAAGDEGARAQSSDWDARGRSPRVADEHGSPRQRYDGVRQSPYMVSANPYDGWYDGGSGGGGGGGGGGYGREAPPPQGPPPHPVGAPPPPPRRRSLWERMWLQRPGGGGGGGGGGGGGGGGGSGGGVDQHGGRSCADAARRGGGGPGGMRGVEGLMSNGGRPNGPHPHAPPPPPPPQQQQQQQRQRRSFLESLTAMMTLPWGGGREEEAGGDRRGGGRGGAAAAHGGRGAGGGRGHPPSIGSPPPGPLQPPEYGPQGGQARRWGAGGGRGGVGGDGGGGGVGAAAYVQLSTGGRGGGGGGGRGRGGGREGPTWHNPVYDWQAPPK",stoichiometry N,3
